The values that follow come from US20100260668A1 (published 2010).

The target in one test is T1, VEGF 1-165 aa (UniProt P15692 27-191).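 Further: ELISA screen of antibodies for binding to plate-immobilized target antigen.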
T1 construct: Bought antigen coated on the ELISA plate
Description: direct bind ELISA (N-term VD). (ELISA stands for enzyme-linked immunosorbent assay.)

The next test has as its target T2, HGF-His tag (UniProt P14210 32-728).
T2 construct: Bought antigen coated on the ELISA plate; not shown: His tag
Description: direct bind ELISA (C-term VD).

T1 sequence (P15692 other isoform, or with tags, fused parts or gaps limits assumed): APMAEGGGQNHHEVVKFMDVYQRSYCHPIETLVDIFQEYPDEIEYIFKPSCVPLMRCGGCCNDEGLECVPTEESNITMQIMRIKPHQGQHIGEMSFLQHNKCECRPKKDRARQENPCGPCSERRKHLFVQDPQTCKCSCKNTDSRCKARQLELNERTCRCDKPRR
T2 sequence (P14210 32-728 limits assumed): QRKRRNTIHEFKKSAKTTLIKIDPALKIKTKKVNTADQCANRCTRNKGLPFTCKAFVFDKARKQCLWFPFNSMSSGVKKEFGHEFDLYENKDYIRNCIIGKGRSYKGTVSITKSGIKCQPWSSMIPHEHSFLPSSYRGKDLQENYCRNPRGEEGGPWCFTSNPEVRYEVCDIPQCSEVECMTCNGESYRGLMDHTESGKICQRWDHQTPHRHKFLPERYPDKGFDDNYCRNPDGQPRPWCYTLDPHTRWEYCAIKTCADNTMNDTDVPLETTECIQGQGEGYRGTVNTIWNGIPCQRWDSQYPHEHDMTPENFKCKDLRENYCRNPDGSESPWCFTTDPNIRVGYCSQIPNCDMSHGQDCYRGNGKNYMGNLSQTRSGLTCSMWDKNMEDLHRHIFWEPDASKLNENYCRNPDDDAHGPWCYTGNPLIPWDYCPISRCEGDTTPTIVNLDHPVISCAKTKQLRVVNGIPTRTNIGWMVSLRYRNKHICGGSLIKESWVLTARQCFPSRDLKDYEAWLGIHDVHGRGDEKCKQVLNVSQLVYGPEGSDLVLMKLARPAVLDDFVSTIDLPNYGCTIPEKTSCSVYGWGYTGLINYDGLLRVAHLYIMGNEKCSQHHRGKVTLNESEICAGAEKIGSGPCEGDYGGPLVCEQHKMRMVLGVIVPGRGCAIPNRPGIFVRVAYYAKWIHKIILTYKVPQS
Description for HGF-His tag: (§1) Enzyme Linked Immunosorbent Assays to screen for antibodies that bind a desired target antigen were performed as follows. […] Plates were washed four times with PBS containing 0.02% Tween 20. Plates were blocked by the addition of 300 μL/well blocking solution (non-fat dry milk powder, various retail suppliers, diluted to 2% in PBS) for ½ hour at room temperature. Plates were washed four times after blocking with PBS containing 0.02% Tween 20.
(§2) Alternatively, one hundred microliters per well of 10 μg/ml of Histidine (His) tagged desired target antigen (R&D Systems, Minneapolis, Minn.) was added to ELISA plates coated with monoclonal mouse anti-polyHistidine antibody as described above and incubated for 1 hour at room temperature. Wells were washed four times with PBS containing 0.02% Tween 20.
(§3) Plates were washed 4 times with PBS containing 0.02% Tween 20.
Description for VEGF 1-165 aa: as §1, §2, §3

B1: DVD644 (bispecific antibody, human IgG1, kappa)
heavy: not shown
light: DIQMTQSPSSLSASVGDRVTITCRASQDVSTAVAWYQQKPGKAPKLLIYSASFLYSGVPSRFSGSGSGTDFTLTISSLQPEDFATYYCQQSYTTPPTFGQGTKVEIKRTVAAPSVFIFPPDIQMTQSPSSVSASVGDRVTITCRASQGISSWLAWYQQKPGKAPNLLIYEASSLQSGVPSRFGGSGSGTDFTLTISSLQPEDFATYYCQQANGFPWTFGQGTKVEIKRTVAAPSVFIFPPSDEQLKSGTASVVCLLNNFYPREAKVQWKVDNALQSGNSQESVTEQDSKDSTYSLSSTLTLSKADYEKHKVYACEVTHQGLSSPVTKSFNRGEC
notes: DVD-Ig; HC linker long, LC linker long; vectors V1/V2
In general, EC50 refers to the concentration giving half of the maximal effect. A high value points to lower potency in that assay. On to B1, for which the concentration giving a half-maximal response (EC50) worked out at 5.31 nM with VEGF 1-165 aa and 0.29 nM with HGF-His tag.

B2: DVD656 (bispecific antibody, human IgG1, kappa)
heavy: not shown
light: DIQMTQSPSSLSASVGDRVTITCRASQDVSTAVAWYQQKPGKAPKLLIYSASFLYSGVPSRFSGSGSGTDFTLTISSLQPEDFATYYCQQSYTTPPTFGQGTKVEIKRTVAAPSVFIFPPDIQMTQSPSSVSASVGDRVTITCRASQGISSWLAWYQQKPGKAPNLLIYEASSLQSGVPSRFGGSGSGTDFTLTISSLQPEDFATYYCQQANGFPWTFGQGTKVEIKRTVAAPSVFIFPPSDEQLKSGTASVVCLLNNFYPREAKVQWKVDNALQSGNSQESVTEQDSKDSTYSLSSTLTLSKADYEKHKVYACEVTHQGLSSPVTKSFNRGEC
notes: DVD-Ig; HC linker short, LC linker long; vectors V1/V2
For B2, the results for the EC50 in the test with VEGF 1-165 aa and with HGF-His tag were 7.87 nM and 1.27 nM, respectively.

B3: DVD670 (bispecific antibody, human IgG1, kappa)
heavy: not shown
light: DIQMTQSPSSLSASVGDRVTITCRASQVIRRSLAWYQQKPGKAPKLLIYAASNLASGVPSRFSGSGSGTDFTLTISSLQPEDFATYYCQQSNTSPLTFGQGTKVEIKRTVAAPSVFIFPPDIQMTQSPSSLSASVGDRVTITCKASENVVSYVSWYQQKPGKAPKLLIYGASNRNTGVPSRFSGSGSGTDFTLTISSLQPEDFATYYCGQSYNYPYTFGQGTKLEIKRTVAAPSVFIFPPSDEQLKSGTASVVCLLNNFYPREAKVQWKVDNALQSGNSQESVTEQDSKDSTYSLSSTLTLSKADYEKHKVYACEVTHQGLSSPVTKSFNRGEC
notes: DVD-Ig; N-term VD AB071 (VEGF), C-term VD AB079 (HGF); HC linker long, LC linker long; vectors V1/V2
For the molecule B3, the 50% effective concentration (EC50) with VEGF 1-165 aa amounted to 48.3 nM; with HGF-His tag, 3.1 nM.

B4: DVD660 (bispecific antibody, human IgG1, kappa)
heavy: not shown
light: DIQMTQSPSSLSASVGDRVTITCSASQDISNYLNWYQQKPGKAPKVLIYFTSSLHSGVPSRFSGSGSGTDFTLTISSLQPEDFATYYCQQYSTVPWTFGQGTKVEIKRTVAAPDIQMTQSPSSLSASVGDRVTITCKASENVVSYVSWYQQKPGKAPKLLIYGASNRNTGVPSRFSGSGSGTDFTLTISSLQPEDFATYYCGQSYNYPYTFGQGTKLEIKRTVAAPSVFIFPPSDEQLKSGTASVVCLLNNFYPREAKVQWKVDNALQSGNSQESVTEQDSKDSTYSLSSTLTLSKADYEKHKVYACEVTHQGLSSPVTKSFNRGEC
notes: DVD-Ig; HC linker short, LC linker short; vectors V1/V2
Turning to B4, the figures for the EC50 in the test with VEGF 1-165 aa and with HGF-His tag were 1.51 nM and 449 nM, respectively.

B5: DVD664 (bispecific antibody, human IgG1, kappa)
heavy: not shown
light: DIQMTQSPSSLSASVGDRVTITCRASQVIRRSLAWYQQKPGKAPKLLIYAASNLASGVPSRFSGSGSGTDFTLTISSLQPEDFATYYCQQSNTSPLTFGQGTKVEIKRTVAAPDIQMTQSPSSLSASVGDRVTITCKASENVVSYVSWYQQKPGKAPKLLIYGASNRNTGVPSRFSGSGSGTDFTLTISSLQPEDFATYYCGQSYNYPYTFGQGTKLEIKRTVAAPSVFIFPPSDEQLKSGTASVVCLLNNFYPREAKVQWKVDNALQSGNSQESVTEQDSKDSTYSLSSTLTLSKADYEKHKVYACEVTHQGLSSPVTKSFNRGEC
notes: DVD-Ig; N-term VD AB071 (VEGF), C-term VD AB079 (HGF); HC linker short, LC linker short; vectors V1/V2
Consider B5, for which the EC50 in the test with VEGF 1-165 aa was 40.9 nM; with HGF-His tag, 80.9 nM.

B6: DVD648 (bispecific antibody, human IgG1, kappa)
heavy: not shown
light: DIQMTQSPSSLSASVGDRVTITCSASQDISNYLNWYQQKPGKAPKVLIYFTSSLHSGVPSRFSGSGSGTDFTLTISSLQPEDFATYYCQQYSTVPWTFGQGTKVEIKRTVAAPDIQMTQSPSSVSASVGDRVTITCRASQGISSWLAWYQQKPGKAPNLLIYEASSLQSGVPSRFGGSGSGTDFTLTISSLQPEDFATYYCQQANGFPWTFGQGTKVEIKRTVAAPSVFIFPPSDEQLKSGTASVVCLLNNFYPREAKVQWKVDNALQSGNSQESVTEQDSKDSTYSLSSTLTLSKADYEKHKVYACEVTHQGLSSPVTKSFNRGEC
notes: DVD-Ig; HC linker long, LC linker short; vectors V1/V2
Consider B6, for which the EC50 with VEGF 1-165 aa came out at 1.72 nM; with HGF-His tag it was 4.17 nM.

B7: DVD668 (bispecific antibody, human IgG1, kappa)
heavy: not shown
light: DIQMTQSPSSLSASVGDRVTITCRASQDVSTAVAWYQQKPGKAPKLLIYSASFLYSGVPSRFSGSGSGTDFTLTISSLQPEDFATYYCQQSYTTPPTFGQGTKVEIKRTVAAPSVFIFPPDIQMTQSPSSLSASVGDRVTITCKASENVVSYVSWYQQKPGKAPKLLIYGASNRNTGVPSRFSGSGSGTDFTLTISSLQPEDFATYYCGQSYNYPYTFGQGTKLEIKRTVAAPSVFIFPPSDEQLKSGTASVVCLLNNFYPREAKVQWKVDNALQSGNSQESVTEQDSKDSTYSLSSTLTLSKADYEKHKVYACEVTHQGLSSPVTKSFNRGEC
notes: as for B1
As for B7, the concentration for a half-maximal effect (EC50) with VEGF 1-165 aa came to 136 nM; with HGF-His tag, 20.2 nM.

B8: DVD646 (bispecific antibody, human IgG1, kappa)
heavy: not shown
light: DIQMTQSPSSLSASVGDRVTITCRASQVIRRSLAWYQQKPGKAPKLLIYAASNLASGVPSRFSGSGSGTDFTLTISSLQPEDFATYYCQQSNTSPLTFGQGTKVEIKRTVAAPSVFIFPPDIQMTQSPSSVSASVGDRVTITCRASQGISSWLAWYQQKPGKAPNLLIYEASSLQSGVPSRFGGSGSGTDFTLTISSLQPEDFATYYCQQANGFPWTFGQGTKVEIKRTVAAPSVFIFPPSDEQLKSGTASVVCLLNNFYPREAKVQWKVDNALQSGNSQESVTEQDSKDSTYSLSSTLTLSKADYEKHKVYACEVTHQGLSSPVTKSFNRGEC
notes: DVD-Ig; N-term VD AB071 (VEGF), C-term VD AB012 (HGF); HC linker long, LC linker long; vectors V1/V2
Consider B8, for which the EC50 in the test with VEGF 1-165 aa was 30.7 nM; with HGF-His tag, 0.49 nM.

B9: DVD658 (bispecific antibody, human IgG1, kappa)
heavy: not shown
light: DIQMTQSPSSLSASVGDRVTITCRASQVIRRSLAWYQQKPGKAPKLLIYAASNLASGVPSRFSGSGSGTDFTLTISSLQPEDFATYYCQQSNTSPLTFGQGTKVEIKRTVAAPSVFIFPPDIQMTQSPSSVSASVGDRVTITCRASQGISSWLAWYQQKPGKAPNLLIYEASSLQSGVPSRFGGSGSGTDFTLTISSLQPEDFATYYCQQANGFPWTFGQGTKVEIKRTVAAPSVFIFPPSDEQLKSGTASVVCLLNNFYPREAKVQWKVDNALQSGNSQESVTEQDSKDSTYSLSSTLTLSKADYEKHKVYACEVTHQGLSSPVTKSFNRGEC
notes: DVD-Ig; N-term VD AB071 (VEGF), C-term VD AB012 (HGF); HC linker short, LC linker long; vectors V1/V2
B9: the EC50 in the test with VEGF 1-165 aa worked out at 28.7 nM; with HGF-His tag, 0.94 nM.

B10: DVD666 (bispecific antibody, human IgG1, kappa)
heavy: not shown
light: DIQMTQSPSSLSASVGDRVTITCSASQDISNYLNWYQQKPGKAPKVLIYFTSSLHSGVPSRFSGSGSGTDFTLTISSLQPEDFATYYCQQYSTVPWTFGQGTKVEIKRTVAAPSVFIFPPDIQMTQSPSSLSASVGDRVTITCKASENVVSYVSWYQQKPGKAPKLLIYGASNRNTGVPSRFSGSGSGTDFTLTISSLQPEDFATYYCGQSYNYPYTFGQGTKLEIKRTVAAPSVFIFPPSDEQLKSGTASVVCLLNNFYPREAKVQWKVDNALQSGNSQESVTEQDSKDSTYSLSSTLTLSKADYEKHKVYACEVTHQGLSSPVTKSFNRGEC
notes: as for B1
As for B10, the half-maximal effective concentration (EC50) with VEGF 1-165 aa worked out at 134 nM; with HGF-His tag, 14.7 nM.

B11: DVD662 (bispecific antibody, human IgG1, kappa)
heavy: not shown
light: DIQMTQSPSSLSASVGDRVTITCRASQDVSTAVAWYQQKPGKAPKLLIYSASFLYSGVPSRFSGSGSGTDFTLTISSLQPEDFATYYCQQSYTTPPTFGQGTKVEIKRTVAAPDIQMTQSPSSLSASVGDRVTITCKASENVVSYVSWYQQKPGKAPKLLIYGASNRNTGVPSRFSGSGSGTDFTLTISSLQPEDFATYYCGQSYNYPYTFGQGTKLEIKRTVAAPSVFIFPPSDEQLKSGTASVVCLLNNFYPREAKVQWKVDNALQSGNSQESVTEQDSKDSTYSLSSTLTLSKADYEKHKVYACEVTHQGLSSPVTKSFNRGEC
notes: as for B4
Regarding B11, the figures for the half-maximal effective concentration (EC50) with VEGF 1-165 aa and with HGF-His tag were 70.2 nM and 214 nM, respectively.

B12: DVD652 (bispecific antibody, human IgG1, kappa)
heavy: not shown
light: DIQMTQSPSSLSASVGDRVTITCRASQVIRRSLAWYQQKPGKAPKLLIYAASNLASGVPSRFSGSGSGTDFTLTISSLQPEDFATYYCQQSNTSPLTFGQGTKVEIKRTVAAPDIQMTQSPSSVSASVGDRVTITCRASQGISSWLAWYQQKPGKAPNLLIYEASSLQSGVPSRFGGSGSGTDFTLTISSLQPEDFATYYCQQANGFPWTFGQGTKVEIKRTVAAPSVFIFPPSDEQLKSGTASVVCLLNNFYPREAKVQWKVDNALQSGNSQESVTEQDSKDSTYSLSSTLTLSKADYEKHKVYACEVTHQGLSSPVTKSFNRGEC
notes: DVD-Ig; N-term VD AB071 (VEGF), C-term VD AB012 (HGF); HC linker long, LC linker short; vectors V1/V2
Take B12: the concentration for a half-maximal effect (EC50) in the test with VEGF 1-165 aa was determined as 13.8 nM; with HGF-His tag it was 4.71 nM.

B13: DVD650 (bispecific antibody, human IgG1, kappa)
heavy: not shown
light: DIQMTQSPSSLSASVGDRVTITCRASQDVSTAVAWYQQKPGKAPKLLIYSASFLYSGVPSRFSGSGSGTDFTLTISSLQPEDFATYYCQQSYTTPPTFGQGTKVEIKRTVAAPDIQMTQSPSSVSASVGDRVTITCRASQGISSWLAWYQQKPGKAPNLLIYEASSLQSGVPSRFGGSGSGTDFTLTISSLQPEDFATYYCQQANGFPWTFGQGTKVEIKRTVAAPSVFIFPPSDEQLKSGTASVVCLLNNFYPREAKVQWKVDNALQSGNSQESVTEQDSKDSTYSLSSTLTLSKADYEKHKVYACEVTHQGLSSPVTKSFNRGEC
notes: as for B6
For the molecule B13, the concentration for a half-maximal effect (EC50) with VEGF 1-165 aa was found to be 2.67 nM; with HGF-His tag, 4.63 nM.

B14: DVD642 (bispecific antibody, human IgG1, kappa)
heavy: not shown
light: DIQMTQSPSSLSASVGDRVTITCSASQDISNYLNWYQQKPGKAPKVLIYFTSSLHSGVPSRFSGSGSGTDFTLTISSLQPEDFATYYCQQYSTVPWTFGQGTKVEIKRTVAAPSVFIFPPDIQMTQSPSSVSASVGDRVTITCRASQGISSWLAWYQQKPGKAPNLLIYEASSLQSGVPSRFGGSGSGTDFTLTISSLQPEDFATYYCQQANGFPWTFGQGTKVEIKRTVAAPSVFIFPPSDEQLKSGTASVVCLLNNFYPREAKVQWKVDNALQSGNSQESVTEQDSKDSTYSLSSTLTLSKADYEKHKVYACEVTHQGLSSPVTKSFNRGEC
notes: as for B1
In the case of B14, the EC50 with VEGF 1-165 aa stood at 6.35 nM; in the test with HGF-His tag, 0.87 nM.

B15: DVD654 (bispecific antibody, human IgG1, kappa)
heavy: not shown
light: DIQMTQSPSSLSASVGDRVTITCSASQDISNYLNWYQQKPGKAPKVLIYFTSSLHSGVPSRFSGSGSGTDFTLTISSLQPEDFATYYCQQYSTVPWTFGQGTKVEIKRTVAAPSVFIFPPDIQMTQSPSSVSASVGDRVTITCRASQGISSWLAWYQQKPGKAPNLLIYEASSLQSGVPSRFGGSGSGTDFTLTISSLQPEDFATYYCQQANGFPWTFGQGTKVEIKRTVAAPSVFIFPPSDEQLKSGTASVVCLLNNFYPREAKVQWKVDNALQSGNSQESVTEQDSKDSTYSLSSTLTLSKADYEKHKVYACEVTHQGLSSPVTKSFNRGEC
notes: as for B2
For B15, the EC50 was found to be 3.71 nM with VEGF 1-165 aa and 0.91 nM in the test with HGF-His tag.
